Target: the molecule itself
Assay: bead aggregation assay

B1: NcadEC-Fc (Fc fusion)
chain: DWVIPPVNVLENSRKQFPEELVKIQSDKDKSNTLRYSVTGPGADQNPTGLFIIDPISGLLSVTKPLDREHIPNFHLRAHAVDINGNQMENPIDIIINVIDMNDNRPEFTHQIWNGTVDEGAKPGTFVMTVTSQDKDDPNTANGMLRYKILSQTPESPSSNMFTINNKTGKIITVAAGLDREKVPQYTLIIQATDMEGNPTYGLSNTATAVIRLLDVNDNAPEFTRETFHGEVPENRVNVIVTNLTVTDKDEPGTPAWNAVYRIISGDPTGRFSIPTDPVTNEGLVTVVKPVDFEMNRSFMLTVVADNEVPLASGIHRTRQSTATVSIRVIDVNESPNFDPNPKQIKLEEGLPQWSMLTTFTAHDPDRYMQQTISYSKLYDPANWLEIDPNNGRISTIAVLDRESPYVKNNLYNATFMASDNGVPRASGTGTLQIYLLDINDNAPRVFPQEAEVCERPEPNAINITAVDGDLNPNAGPYAFELPNRPSDIRRNWTLTRISGDHAQLSLKISYLESGIYELPISITDSGNLPMSNTTYLRIKVCQCDHHGDCVDMERIMAAGLGTGA
Does B1 bind?
Result: binds

— article PMC2995167 (The Journal of Cell Biology, 2010)
